Among the data in paper PMC5058748, “ZNF224, Krüppel like zinc finger protein, induces cell growth and apoptosis-resistance by down-regulation of p21 and p53 via miR-663a” are Kd values, retold here.

B1: GCAGCAA hairpin oligo (dsDNA)
DNA 1: CCAAGCAGCAAAAAGGGAAAAACCCTTTTTGCTGCTTGG
DNA 2: CCAAGCAGCAAAAAGGGTTTTTCCCTTTTTGCTGCTTGG
B2: CAGCTTC hairpin oligo (dsDNA)
DNA 1: CCAAGAAGCTGAAAGGGAAAAACCCTTTCAGCTTCTTGG
DNA 2: CCAAGAAGCTGAAAGGGTTTTTCCCTTTCAGCTTCTTGG
B3: CAGCGTC hairpin oligo (dsDNA)
DNA 1: CCAAGACGCTGAAAGGGAAAAACCCTTTCAGCGTCTTGG
DNA 2: CCAAGACGCTGAAAGGGTTTTTCCCTTTCAGCGTCTTGG

Sequence of FLAG-ZNF224 (Q9NZL3 whole entry): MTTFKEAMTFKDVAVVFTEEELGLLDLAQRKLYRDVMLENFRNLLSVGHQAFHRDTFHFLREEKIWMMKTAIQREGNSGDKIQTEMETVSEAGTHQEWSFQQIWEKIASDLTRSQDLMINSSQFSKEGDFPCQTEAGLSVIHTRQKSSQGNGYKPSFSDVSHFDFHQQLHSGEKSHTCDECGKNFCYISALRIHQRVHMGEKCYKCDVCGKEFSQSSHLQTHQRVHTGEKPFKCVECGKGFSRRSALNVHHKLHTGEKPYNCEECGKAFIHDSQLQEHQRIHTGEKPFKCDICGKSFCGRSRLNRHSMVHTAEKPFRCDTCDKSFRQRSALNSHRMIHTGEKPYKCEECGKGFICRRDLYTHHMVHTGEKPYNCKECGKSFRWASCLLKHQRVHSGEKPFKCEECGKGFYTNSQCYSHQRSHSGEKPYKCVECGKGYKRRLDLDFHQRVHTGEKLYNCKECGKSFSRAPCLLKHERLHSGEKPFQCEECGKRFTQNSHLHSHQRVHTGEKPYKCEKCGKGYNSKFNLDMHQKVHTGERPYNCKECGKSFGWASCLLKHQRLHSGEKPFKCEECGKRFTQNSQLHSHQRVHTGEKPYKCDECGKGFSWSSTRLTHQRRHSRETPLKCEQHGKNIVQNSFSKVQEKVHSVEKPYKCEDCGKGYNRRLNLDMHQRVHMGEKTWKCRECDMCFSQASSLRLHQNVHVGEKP

This data set addresses FLAG-ZNF224 (UniProt Q9NZL3 1-707). Kind of data set: SPR; protein immobilized, oligo as analyte; SPR: 1x PBS, Reichert SR7500DC, CMDH chip, oligo 0-10 uM; pH and temperature not stated; ELISA buffer not in material. Conditions: protein: recombinant; tags: 3xFLAG; label: 5'-biotin (ELISA oligos); hairpin. Background: SPR reads the build-up and loss of mass on a sensor chip optically.
Take B1: the Kd (usually the equilibrium constant for the complex coming apart) was 420 ± 30 nM. Then B2, with 1250 ± 60 nM. Take B3: the dissociation constant Kd amounted to 2000 ± 100 nM.
